Experimental data: patent publication US20100240040A1, “METHOD FOR SCREENING FOR SELECTIVE MODULATOR OF THE NF-KB PATHWAY ACTIVATION” (INSTITUT PASTEUR, priority 2007, published 2010)

Assays:
[1] = target: Biot-CC2-LZ (murine); test: HTRF, 50 nM each, in the presence of Mono-Ub (1 µM)
[2] = target: Biot-CC2-LZ (murine); test: HTRF, 50 nM each, in the presence of Poly-Ub (12.5 µM)
[3] = target: Biot-CC2-LZ (murine); test: HTRF, 50 nM each, streptavidin-EuK 2 nM, anti-His-XL665 7 nM
[4] = target: Biot-CC2-LZ (murine); test: HTRF, 50 nM each, in the presence of GST-Ub4 (12.5 µM), which induces the CC2-LZ dimer

B1: His-CC2-LZ (protein)
chain: MGSHHHHHHSSGLVPRGSHMASLEDLRQQLQQAEEALVAKQELIDKLKEEAEQHKIVMETVPVLKAQADIYKADFQAERHAREKLVEKKEYLQEQLEQLQREFNKL
[1]
  FRET (ΔF %): < 0 ΔF %
[2]
  FRET (ΔF %): < 0 ΔF %
[3]
  FRET (ΔF %): < 0 ΔF %
[4]
  FRET (ΔF %): 373 ΔF %
